The results in this text go back to publication PMC3115021, “Dynamics of Cdk1 Substrate Specificity during the Cell Cycle” (Molecular Cell, 2011).

Common to all, as to experiment: Quantitative phosphorylation assay of T33-Sic1ΔC constructs and recombinant substrates
Holding throughout (type): biochemical
What all share (conditions): Table S2; purified protein substrate; relative values, not divided by [S]

One data set deals with T1, Clb2-Cdk1 (Saccharomyces cerevisiae, UniProt P00546+P24869).
T1 construct: We purified the four cyclin-Cdk1 complexes from yeast; made in house; host or cells: S. cerevisiae strain DOM0077 (gal-CLB2-TAP, sic1 deleted); Cks1 from bacteria
T1 sequence (P00546 2-298 limits assumed): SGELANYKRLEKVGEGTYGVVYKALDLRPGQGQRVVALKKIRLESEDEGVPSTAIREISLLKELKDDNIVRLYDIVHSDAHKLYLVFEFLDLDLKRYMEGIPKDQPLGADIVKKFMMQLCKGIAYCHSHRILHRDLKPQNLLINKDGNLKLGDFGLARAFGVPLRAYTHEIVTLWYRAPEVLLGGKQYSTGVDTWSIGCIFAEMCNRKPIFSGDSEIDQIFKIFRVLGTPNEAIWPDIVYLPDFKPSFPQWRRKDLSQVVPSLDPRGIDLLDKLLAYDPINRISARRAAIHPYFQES
T1 sequence (P24869 2-491 partner limits assumed): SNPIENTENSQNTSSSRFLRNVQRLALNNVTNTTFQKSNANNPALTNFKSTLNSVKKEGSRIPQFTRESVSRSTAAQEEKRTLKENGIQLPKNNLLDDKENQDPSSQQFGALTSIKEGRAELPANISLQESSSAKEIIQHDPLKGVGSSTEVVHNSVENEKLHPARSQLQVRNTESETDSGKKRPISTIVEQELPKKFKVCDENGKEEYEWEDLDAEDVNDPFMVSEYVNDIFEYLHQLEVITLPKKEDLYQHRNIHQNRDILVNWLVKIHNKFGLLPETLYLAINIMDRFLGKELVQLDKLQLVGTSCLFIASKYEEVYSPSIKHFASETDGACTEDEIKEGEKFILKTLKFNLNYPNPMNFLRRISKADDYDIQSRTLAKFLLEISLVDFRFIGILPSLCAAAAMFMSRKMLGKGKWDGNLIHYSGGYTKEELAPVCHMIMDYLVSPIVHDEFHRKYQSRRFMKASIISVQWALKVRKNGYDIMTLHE
T1 sequence (P20486 whole entry partner): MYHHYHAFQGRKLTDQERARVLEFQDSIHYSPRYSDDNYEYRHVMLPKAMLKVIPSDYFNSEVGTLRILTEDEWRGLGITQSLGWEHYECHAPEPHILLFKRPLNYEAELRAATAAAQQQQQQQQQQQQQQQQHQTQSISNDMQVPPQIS
Here is the method: (§1) For the quantitative phosphorylation assays of T33-Sic1ΔC constructs and recombinant substrates, substrate concentrations were kept in the range of 0.5–2 μM (in the linear [S] versus v0 range, several-fold below the estimated KM value), and initial velocity conditions were defined as an initial substrate turnover of up to 10% of the total turnover. For the steady-state peptide kinetics of the Histone peptide PKTPKKAKKL, a similar assay composition was used as for protein substrates, and phosphocellulose paper was used for the quantification of the phosphorylated substrate. […]
(§2) similar substrate specificity as the Cln2-Cdk1 version purified using a TAP-tag. N-terminally 6His-tagged recombinant T33-Sic1ΔC constructs and substrates were cloned into the pET28a vector and purified by standard cobalt affinity chromatography and elution with 200 mM imidazole. 6His-Fin1 was purified as described previously (Woodbury and Morgan, 2007). Substrates cloned into the pGEX-4T-1 were purified on glutathione agarose columns using 5 mM reduced glutathione for elution. Cks1 was purified as described previously (Reynard et al., 2000). The optimal working concentration for purified Cks1 was taken as 500 nM based on optimization performed for cyclin-Cdk1 preparations and T33-Sic1ΔC as a substrate.
(§3) For the quantitative phosphorylation assays of T33-Sic1ΔC constructs and recombinant substrates, substrate concentrations were kept in the range of 0.5-2 μM (in the linear [S] vs v0 range, several-fold below the estimated KM value), and the initial velocity conditions were defined as an initial substrate turnover ranging up to 10% of the total turnover. The latter was estimated by a long-term incubation with excess amounts of cyclin-Cdk1 and 32P-γ-ATP in the standard reaction mixture given below. About 1-10 nM of purified kinase complex was used, reaction aliquots were taken at two or more time points, and the reaction was stopped by SDS-PAGE sample buffer. The relative kcat/KM values for the substrates were calculated as the ratio of v0/[S], which was determined from at least two independent experiments. The basal composition of the assay mixture contained 50 mM Hepes, pH 7.4, 100 mM NaCl, 0.1% NP-40, 20 mM imidazole, 0.1 mg/ml 2HA peptide, 2% glycerol, 2 mM EGTA, 0.2 mg/ml BSA, […], and 500 μM ATP (with added 32P-γ-ATP (Perkin Elmer)).
(§4) About 1-10 nM of purified kinase complex was used, reaction aliquots were taken at two or more time points, and the reaction was stopped by SDS-PAGE sample buffer. For the steady-state peptide kinetics of the Histone peptide PKTPKKAKKL, a similar assay composition was used as for protein substrates and the standard phosphocellulose method was applied for the quantification of the phosphorylated substrate (Loog and Morgan, 2005). Synthetic peptides as competitor agents were used in 4 mM final concentrations. […]

The next data set concerns the target T2, Clb3-Cdk1 (Saccharomyces cerevisiae, UniProt P00546+P24870).
T2 construct: We purified the four cyclin-Cdk1 complexes from yeast; made in house; host or cells: S. cerevisiae strain DOM0957 (gal-CLB3-TAP, sic1 deleted); Cks1 from bacteria
Here is the method:
as §1, §2, §3, §4

The next data set has as its target T3, Clb5-Cdk1 (Saccharomyces cerevisiae, UniProt P00546+P30283).
T3 construct: We purified the four cyclin-Cdk1 complexes from yeast; made in house; host or cells: S. cerevisiae strain DOM0076 (gal-CLB5-TAP, sic1 deleted); Cks1 from bacteria
Here is the method: as §1, §2, §3, §4

The next data set deals with T4, Cln2-Cdk1 (Saccharomyces cerevisiae, UniProt P00546+P20438).
T4 construct: We purified the four cyclin-Cdk1 complexes from yeast; made in house; host or cells: S. cerevisiae strain DMY305 (galactose-induced); Cks1 from bacteria
T4 sequence (P00546 2-298 limits assumed): as the sequence (P00546 2-298 limits assumed) above
T4 sequence (P20438 whole entry partner): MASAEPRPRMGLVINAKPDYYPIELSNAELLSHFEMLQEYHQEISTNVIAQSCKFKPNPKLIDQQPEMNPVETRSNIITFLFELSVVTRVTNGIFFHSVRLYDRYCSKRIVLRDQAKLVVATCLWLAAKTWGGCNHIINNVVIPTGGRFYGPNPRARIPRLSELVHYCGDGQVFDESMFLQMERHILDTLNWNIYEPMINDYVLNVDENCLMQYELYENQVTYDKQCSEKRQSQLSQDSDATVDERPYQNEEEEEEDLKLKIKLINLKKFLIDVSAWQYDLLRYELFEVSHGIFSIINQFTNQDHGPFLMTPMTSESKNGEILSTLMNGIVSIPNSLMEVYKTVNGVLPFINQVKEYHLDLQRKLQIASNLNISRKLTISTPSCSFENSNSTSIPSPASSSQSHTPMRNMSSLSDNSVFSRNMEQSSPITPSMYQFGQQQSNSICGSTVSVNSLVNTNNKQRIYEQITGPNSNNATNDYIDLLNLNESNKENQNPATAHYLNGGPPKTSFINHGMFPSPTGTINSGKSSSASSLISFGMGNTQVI
T4 sequence (P20486 whole entry partner): as the sequence (P20486 whole entry partner) above
On the procedure: as §1, §2, §3, §4

The target of a further data set is T5, Clb2hpm-Cdk1 (Saccharomyces cerevisiae, UniProt P00546).
T5 construct: made in house; host or cells: S. cerevisiae strain DOM0964 (gal-CLB2hpm-TAP, sic1 deleted); Cks1 from bacteria
T5 sequence (P00546 2-298 limits assumed): as the sequence (P00546 2-298 limits assumed) above
On the procedure:
(§5) For the quantitative phosphorylation assays of T33-Sic1ΔC constructs and recombinant substrates, substrate concentrations were kept in the range of 0.5–2 μM (in the linear [S] versus v0 range, several-fold below the estimated KM value), and initial velocity conditions were defined as an initial substrate turnover of up to 10% of the total turnover. For the steady-state peptide kinetics of the Histone peptide PKTPKKAKKL, a similar assay composition was used as for protein substrates, and phosphocellulose paper was used for the quantification of the phosphorylated substrate.
(§6) Supplemental Experimental Procedures
(§7) Plasmid constructs and yeast strains
(§8) For tandem affinity purification (TAP) of cyclin-Cdk1 complexes, the cyclin genes were cloned into the 2 micron vector pRSAB1234 containing a GAL1 promoter and the C-terminal TAP-tag. To purify different 6His-T33-Sic1ΔC forms for kinase assays, the C-terminally truncated fragment of Sic1 (with a stop codon inserted after amino acid 215) was cloned into the NheI/BamHI site of the bacterial expression vector pET28a (Invitrogen). Mutagenesis of cyclins or substrates was performed using single-stranded pRSAB1234 or pET28a vector constructs as templates. The triple mutants in the hydrophobic patch (hpm) of Clb5 and Clb2 were described previously (Loog and Morgan, 2005), and the hpm of Clb3 (Phe-201, Leu-205 and Trp-208 mutated to alanines) was designed according to sequence homology with other B-type cyclins. In T33-Sic1ΔC constructs, the other Cdk sites bearing the consensus motif S/T-P were mutated to Ala-Ala in order to prevent any possible (pseudo)substrate competition. The other Cdk substrates were cloned as full-length forms into bacterial expression vectors pET28a or pGEX-4T-1. Cdh1 was purified using the baculovirus system and was a kind gift from Monica Rodrigo-Brenni (UCSF). […]
The […]
(§9) pRSAB1234 analogously to the cyclin-Cdk1 complexes. For C-terminal tagging of cyclin genes in their chromosomal loci, the Pringle method was applied (Longtine et al., 1998). Lists of plasmid […]
(§10) The TAP method was applied for purification of cyclin-Cdk1 complexes and Swe1 as described previously for Clb5-TAP-Cdk1 and Clb2-TAP-Cdk1 (Puig et al., 2001; Ubersax et al., 2003). […]
as §2, with “tagged” for “similar substrate specificity as the Cln2-Cdk1 version purified using a TAP-tag. N-terminally 6His-tagged”
as §3
(§11) About 1-10 nM of purified kinase complex was used, reaction aliquots were taken at two or more […]

The next data set has as its target T6, Clb3hpm-Cdk1 (Saccharomyces cerevisiae, UniProt P00546+P24870).
T6 construct: made in house; host or cells: S. cerevisiae strain MK0168 (gal-CLB3hpm-TAP, sic1 deleted); Cks1 from bacteria
Here is the method: as §5, §6, §7, §8
The […]
as §9, §10
as §2, with “tagged” for “similar substrate specificity as the Cln2-Cdk1 version purified using a TAP-tag. N-terminally 6His-tagged”
as §3, §11

For another data set, the target named is T7, Clb5hpm-Cdk1 (Saccharomyces cerevisiae, UniProt P00546).
T7 construct: made in house; host or cells: S. cerevisiae strain DOM0963 (gal-CLB5hpm-TAP, sic1 deleted); Cks1 from bacteria
T7 sequence (P00546 2-298 limits assumed): as above
Here is the method:
as §5, §6, §7, §8
The […]
as §9, §10
as §2, with “tagged” for “similar substrate specificity as the Cln2-Cdk1 version purified using a TAP-tag. N-terminally 6His-tagged”
as §3, §11

T3 sequence (P00546 2-298 limits assumed): as above
T3 sequence (P30283 whole entry partner): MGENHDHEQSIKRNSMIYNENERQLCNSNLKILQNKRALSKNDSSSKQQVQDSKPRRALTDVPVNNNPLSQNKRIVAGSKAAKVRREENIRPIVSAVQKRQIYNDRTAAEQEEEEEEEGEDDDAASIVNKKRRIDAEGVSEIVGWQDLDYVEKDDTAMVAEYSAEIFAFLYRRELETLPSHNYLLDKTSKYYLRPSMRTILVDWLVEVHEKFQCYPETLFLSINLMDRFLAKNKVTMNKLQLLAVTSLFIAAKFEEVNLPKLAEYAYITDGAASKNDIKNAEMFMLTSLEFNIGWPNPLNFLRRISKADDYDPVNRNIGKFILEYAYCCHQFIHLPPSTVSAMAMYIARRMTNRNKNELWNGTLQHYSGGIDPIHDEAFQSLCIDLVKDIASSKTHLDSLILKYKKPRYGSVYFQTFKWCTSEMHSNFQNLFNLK
T3 sequence (P20486 whole entry partner): as the sequence (P20486 whole entry partner) above
T2 sequence (P00546 2-298 limits assumed): as the sequence (P00546 2-298 limits assumed) above
T2 sequence (P24870 whole entry partner): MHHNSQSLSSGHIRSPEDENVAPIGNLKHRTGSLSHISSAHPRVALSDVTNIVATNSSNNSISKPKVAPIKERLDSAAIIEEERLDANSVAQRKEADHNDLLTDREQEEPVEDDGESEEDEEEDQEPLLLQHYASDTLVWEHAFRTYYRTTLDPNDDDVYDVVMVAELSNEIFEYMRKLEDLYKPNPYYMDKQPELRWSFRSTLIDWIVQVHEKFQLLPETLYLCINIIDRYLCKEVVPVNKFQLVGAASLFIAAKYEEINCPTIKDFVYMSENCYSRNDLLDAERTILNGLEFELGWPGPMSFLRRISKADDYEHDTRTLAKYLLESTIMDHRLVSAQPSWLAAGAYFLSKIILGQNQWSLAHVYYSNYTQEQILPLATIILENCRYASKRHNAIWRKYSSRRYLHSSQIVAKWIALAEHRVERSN
T2 sequence (P20486 whole entry partner): as the sequence (P20486 whole entry partner) above

B1: NDD1: component of the transcription factor complex controlling G2/M-specific genes, tested as Cdk1 substrate (protein, UniProt Q08887 1-554, looked up)
Nuclear division defective …: MDRDISYQQNYTSTGATATSSRQPSTDNNADTNFLKVMSEFKYNFNSPLPTTTQFPTPYSSNQYQQTQDHFANTDAHNSSSNESSLVENSILPHHQQIQQQQQQQQQQQQQQQALGSLVPPAVTRTDTSETLDDINVQPSSVLQFGNSLPSEFLVASPEQFKEFLLDSPSTNFNFFHKTPAKTPLRFVTDSNGAQQSTTENPGQQQNVFSNVDLNNLLKSNGKTPSSSCTGAFSRTPLSKIDMNLMFNQPLPTSPSKRFSSLSLTPYGRKILNDVGTPYAKALISSNSALVDFQKARKDITTNATSIGLENANNILQRTPLRSNNKKLFIKTPQDTINSTSTLTKDNENKQDIYGSSPTTIQLNSSITKSISKLDNSRIPLLASRSDNILDSNVDDQLFDLGLTRLPLSPTPNCNSLHSTTTGTSALQIPELPKMGSFRSDTGINPISSSNTVSFKSKSGNNNSKGRIKKNGKKPSKFQIIVANIDQFNQDTSSSSLSSSLNASSSAGNSNSNVTKKRASKLKRSQSLLSDSGSKSQARKSCNSKSNGNLFNSQ
On to B1, for which, in the data set with Clb2-Cdk1, the “kcat/KM, Clb2” value turned out to be 3.129 relative units. Further, the “kcat/KM, Clb3” value in the data set with Clb3-Cdk1 is listed as 2.121 relative units. In the data set with Clb5-Cdk1, the “kcat/KM, Clb5” value is listed as 0.388 relative units. Moreover, the “kcat/KM, Cln2” value with Cln2-Cdk1 stood at 0.143 relative units. Further, the “kcat/KM, Clb2hpm” value with Clb2hpm-Cdk1 was 1.108 relative units. The “kcat/KM, Clb3hpm” value with Clb3hpm-Cdk1 turned out to be 0.222 relative units. Further, the “kcat/KM, Clb5hpm” value with Clb5hpm-Cdk1 amounted to 0.096 relative units.

B2: ORC2: purified yeast protein tested as Cdk1 substrate (protein, UniProt P32833 1-620, looked up)
Origin recognition complex …: MLNGEDFVEHNDILSSPAKSRNVTPKRVDPHGERQLRRIHSSKKNLLERISLVGNERKNTSPDPALKPKTPSKAPRKRGRPRKIQEELTDRIKKDEKDTISSKKKRKLDKDTSGNVNEESKTSNNKQVMEKTGIKEKREREKIQVATTTYEDNVTPQTDDNFVSNSPEPPEPATPSKKSLTTNHDFTSPLKQIIMNNLKEYKDSTSPGKLTLSRNFTPTPVPKNKKLYQTSETKSASSFLDTFEGYFDQRKIVRTNAKSRHTMSMAPDVTREEFSLVSNFFNENFQKRPRQKLFEIQKKMFPQYWFELTQGFSLLFYGVGSKRNFLEEFAIDYLSPKIAYSQLAYENELQQNKPVNSIPCLILNGYNPSCNYRDVFKEITDLLVPAELTRSETKYWGNHVILQIQKMIDFYKNQPLDIKLILVVHNLDGPSIRKNTFQTMLSFLSVIRQIAIVASTDHIYAPLLWDNMKAQNYNFVFHDISNFEPSTVESTFQDVMKMGKSDTSSGAEGAKYVLQSLTVNSKKMYKLLIETQMQNMGNLSANTGPKRGTQRTGVELKLFNHLCAADFIASNEIALRSMLREFIEHKMANITKNNSGMEIIWVPYTYAELEKLLKTVLNTL
Regarding B2, in the data set with Clb2-Cdk1, the “kcat/KM, Clb2” value is recorded as 0.018 relative units. Also, in the data set with Clb3-Cdk1, the “kcat/KM, Clb3” value was 0.132 relative units. The “kcat/KM, Clb5” value in the data set with Clb5-Cdk1 turned out to be 0.405 relative units. Besides, the “kcat/KM, Cln2” value in the data set with Cln2-Cdk1 is 0.073 relative units. Besides, the “kcat/KM, Clb2hpm” value with Clb2hpm-Cdk1 turned out to be 0.067 relative units. For the same molecule, the “kcat/KM, Clb3hpm” value with Clb3hpm-Cdk1 is 0.028 relative units. Also, the “kcat/KM, Clb5hpm” value with Clb5hpm-Cdk1 was determined as 0.012 relative units.

B3: ORC6: purified yeast protein tested as Cdk1 substrate (protein, UniProt P38826 1-435, looked up)
Origin recognition complex …: MSMQQVQHCVAEVLRLDPQEKPDWSSGYLKKLTNATSILYNTSLNKVMLKQDEEVARCHICAYIASQKMNEKHMPDLCYYIDSIPLEPKKAKHLMNLFRQSLSNSSPMKQFAWTPSPKKNKRSPVKNGGRFTSSDPKELRNQLFGTPTKVRKSQNNDSFVIPELPPMQTNESPSITRRKLAFEEDEDEDEEEPGNDGLSLKSHSNKSITGTRNVDSDEYENHESDPTSEEEPLGVQESRSGRTKQNKAVGKPQSELKTAKALRKRGRIPNSLLVKKYCKMTTEEIIRLCNDFELPREVAYKIVDEYNINASRLVCPWQLVCGLVLNCTFIVFNERRRKDPRIDHFIVSKMCSLMLTSKVDDVIECVKLVKELIIGEKWFRDLQIRYDDFDGIRYDEIIFRKLGSMLQTTNILVTDDQYNIWKKRIEMDLALTEPL
B3: the “kcat/KM, Clb2” value with Clb2-Cdk1 came to 0.009 relative units. The “kcat/KM, Clb3” value with Clb3-Cdk1 amounted to 0.018 relative units. Further, in the data set with Clb5-Cdk1, the “kcat/KM, Clb5” value worked out at 0.029 relative units. Moreover, the “kcat/KM, Cln2” value with Cln2-Cdk1 came to 0.002 relative units. Also, in the data set with Clb2hpm-Cdk1, the “kcat/KM, Clb2hpm” value is recorded as 0.005 relative units. For the same molecule, in the data set with Clb3hpm-Cdk1, the “kcat/KM, Clb3hpm” value came to 0.002 relative units. The “kcat/KM, Clb5hpm” value with Clb5hpm-Cdk1 was 0.001 relative units.
